# Assay results published in patent US20110301073.
# How the values were obtained:
# Settings in all cases: average of 3 experiments
# [1] = test system: TALE repeat framework A10L (SEQ 408) repeat 5: A10L (Xanthomonas sp. (engineered))
# [2] = test system: TALE repeat framework I9A (SEQ 406) repeat 5: I9A (Xanthomonas sp. (engineered))
# [3] = test system: TALE repeat framework P27A (SEQ 421) repeat 5: P27A (Xanthomonas sp. (engineered))
# [4] = test system: TALE repeat framework L26A (SEQ 420) repeat 5: L26A (Xanthomonas sp. (engineered))
# [5] = test system: TALE repeat framework L25Q (SEQ 419) repeat 5: L25Q (Xanthomonas sp. (engineered))
# [6] = test system: TALE repeat framework A8L (SEQ 404) repeat 5: A8L (Xanthomonas sp. (engineered))
# [7] = test system: TALE repeat framework V6A (SEQ 76) repeat 5: V6A (Xanthomonas sp. (engineered))
# [8] = test system: TALE repeat framework P27L (SEQ 422) repeat 5: P27L (Xanthomonas sp. (engineered))
# [9] = test system: TALE repeat framework R24A (SEQ 417) repeat 5: R24A (Xanthomonas sp. (engineered))
# [10] = test system: TALE repeat framework V22A (SEQ 412) repeat 5: V22A (Xanthomonas sp. (engineered))
# [11] = test system: TALE repeat framework A8T (SEQ 405) repeat 5: A8T (Xanthomonas sp. (engineered))
# [12] = test system: TALE repeat framework T2S/P3T/D4A (SEQ 424) repeat 5: T2S,P3T,D4A (Xanthomonas sp. (engineered))
# [13] = test system: TALE repeat framework Q23R (SEQ 414) repeat 5: Q23R (Xanthomonas sp. (engineered))
# [14] = test system: TALE repeat framework L25A (SEQ 418) repeat 5: L25A (Xanthomonas sp. (engineered))
sequence,measurement,setting,value
TTGACCATCCT (double strand) [CCA target],binding signal (normalized ELISA),[1],0.25
same,binding signal (normalized ELISA),[2],0.62
same,binding signal (normalized ELISA),[3],1.21
same,binding signal (normalized ELISA),[4],1
same,binding signal (normalized ELISA),[5],0.9
same,binding signal (normalized ELISA),[6],0.73
same,binding signal (normalized ELISA),[7],0.89
same,binding signal (normalized ELISA),[8],1.29
same,binding signal (normalized ELISA),[9],0.92
same,binding signal (normalized ELISA),[10],0.7
same,binding signal (normalized ELISA),[11],0.82
same,binding signal (normalized ELISA),[12],0
same,binding signal (normalized ELISA),[13],0.97
same,binding signal (normalized ELISA),[14],1.09
